First the molecules themselves.
B1: HDV Ribozyme (parent)
chain: GGCCGGCAUGGUCCCAGCCUCCUCGCUGGCGCCGGCUGGGCAACAUUCCGAGGGGACCGUCCCCUCGGUAAUGGCGAAUGGGACCCA
B2: Hairpin Ribozyme (parent)
chain: GUCCUCUUUCACGUGCGCGUGAAAGAGAGAAGUGAACCAGAGAAACACACGUUGUGGUAUAUUACCUGGUA

Variants of B1 are the subject of one data set. The data set is described as follows: self-cleavage, relative activity (ratio to wild type); higher = more cleavage; co-transcriptional.
For G81U A87U, the self-cleavage amounted to 0.455. G76C G80U: the self-cleavage was 0.256.

Consider G80C C84G, for which the self-cleavage amounted to 0.163. Turning to G80C C84U, the self-cleavage came to 0.16. Consider G80C C86A, for which the self-cleavage came out at 0.213. On to G80C C86U, for which the self-cleavage was 0.3. The same measure, in the same setting: under G80C C85G stands 0.205; under G82C C86A, 0.527; under C75U A83G, 0.166. Take C75G A77U: the self-cleavage was 0.213. As to C75G A77G, the self-cleavage worked out at 0.0755. Regarding C75G A77C, the self-cleavage was 0.128.

As to A78G A83C, the self-cleavage amounted to 0.128.

For the variant G81U G82C, the self-cleavage was found to be 0.297. On the same count and under the same terms, under G76A C85U stands 1.11.

In the next data set the parent is B2. Described as above.
As for G1A A23G, the self-cleavage was determined as 0.123. G1A A23C: the self-cleavage was determined as 0.221. On the same count and under the same terms, the result for G1A C10G reads 0.207; that for G1C U33C, 0.134; that for G1C U33G, 0.228. Turning to G1A U62C, the self-cleavage worked out at 0.133. Consider G1A U62G, for which the self-cleavage amounted to 0.0492. Turning to G1C A64C, the self-cleavage stood at 0.186. Regarding G1A U2A, the self-cleavage was determined as 0.574. G1A A44U: the self-cleavage is 0.17.

As for G1C U5G, the self-cleavage is 0.237. Same read-out and setting: under G1C U5A stands 0.133; under G1A A61U, 0.0641.

For the variant G1C U58C, the self-cleavage is 0.16. G1A G21C: the self-cleavage was 0.119.

As for G1A G29A, the self-cleavage turned out to be 0.157. Take G1A G29U: the self-cleavage came to 0.157.

Turning to G1A G29C, the self-cleavage worked out at 0.196. Consider G1C C3G, for which the self-cleavage turned out to be 0.246. With G1C G32U, the self-cleavage came out at 0.171. In the case of G1C U67G, the self-cleavage came to 0.0946. As for G1A A28U, the self-cleavage came to 0.0496. The same measure, in the same setting: the result for G1A A28G reads 0.196. As to G1A A26C, the self-cleavage was determined as 0.147. G1A G13A: the self-cleavage amounted to 0.161. With G1C A22C, the self-cleavage is 0.274. For G1C A45U, the self-cleavage turned out to be 0.217. G1U A26U: the self-cleavage worked out at 0.068.

For G1U A26C, the self-cleavage came to 0.103. For G1C C38G, the self-cleavage is 0.112. In the case of G1C C38A, the self-cleavage amounted to 0.281. Consider G1A G19A, for which the self-cleavage turned out to be 0.203. With G1A G19C, the self-cleavage stood at 0.203. Same read-out and setting: the result for G1A G19U reads 0.13. For G1A A64C, the self-cleavage was 0.0979. The same measure, in the same setting: the result for G1A U7C reads 0.31. For G1A U7A, the self-cleavage worked out at 0.127.

On to G1C U20A, for which the self-cleavage is 0.175. In the case of G1A G17C, the self-cleavage was 0.12. On to G1A A36C, for which the self-cleavage was 0.215. Same read-out and setting: under G1A U63G stands 0.284; under G1A U63A, 0.146; under G1C A35C, 0.0578.

As for G1C C66G, the self-cleavage stood at 0.0728. As for G1A A39U, the self-cleavage turned out to be 0.154. The same measure, in the same setting: under G1A G25A stands 0.245; under G1A G25U, 0.102; under G1C C16A, 0.0908. Same read-out and setting: under G1A C38G stands 0.157; under G1A A41C, 0.134. On the same count and under the same terms, under G1A G15U stands 0.0969; under G1A G15A, 0.208. Consider G1C A47C, for which the self-cleavage turned out to be 0.0859. Turning to G1A A35U, the self-cleavage was found to be 0.142. Consider G1C A41C, for which the self-cleavage turned out to be 0.411. Still for that read-out and setting: the result for G1C A41U reads 0.229; that for G1A G69C, 0.137.

Take G1A G69A: the self-cleavage stood at 0.164.

With G1C G15U, the self-cleavage turned out to be 0.24.

With G1C G15C, the self-cleavage turned out to be 0.117. G1C G27C: the self-cleavage was found to be 0.201. For the variant G1C G54U, the self-cleavage is 0.274. As for G1C G54C, the self-cleavage came out at 0.072. As for G1A C50U, the self-cleavage worked out at 0.135.

Take G1A G27U: the self-cleavage amounted to 0.153.

G1A G27A: the self-cleavage is 0.144. In the case of G1C C65G, the self-cleavage worked out at 0.148.

For G1C U52A, the self-cleavage came to 0.0569. For G1A U5G, the self-cleavage was determined as 0.14. For G1C A43C, the self-cleavage is 0.0543. For the variant G1C A43U, the self-cleavage turned out to be 0.171.

Consider G1A U14C, for which the self-cleavage came to 0.166. Still for that read-out and setting: under G1A U14G stands 0.195; under G1A C16A, 0.172; under G1C A71G, 0.313. With G1C C18U, the self-cleavage is 0.139.

In the case of G1C C18G, the self-cleavage was 0.307. With G1C C18A, the self-cleavage worked out at 0.177. Consider G1A C12U, for which the self-cleavage worked out at 0.266. As for G1C A28C, the self-cleavage came out at 0.262. For the variant G1A U67G, the self-cleavage came out at 0.116. Take G1A U67A: the self-cleavage worked out at 0.193. Turning to G1A U53C, the self-cleavage turned out to be 0.0768.

For the variant G1A U53G, the self-cleavage was 0.0863. For the variant G1A U53A, the self-cleavage turned out to be 0.12.

Consider G1C U63A, for which the self-cleavage was determined as 0.194. Consider G1C U63C, for which the self-cleavage came to 0.285. For the variant G1C A24U, the self-cleavage was 0.19. Same read-out and setting: the result for G1C G21C reads 0.378; that for G1A C37A, 0.0752; that for G1C G29U, 0.129. As for G1C C4U, the self-cleavage was determined as 0.228. Take G1C C4A: the self-cleavage was 0.126. Same read-out and setting: the result for G1C U53C reads 0.239; that for G1C U8G, 0.216; that for G1U A24C, 0.162. On to G1U A24G, for which the self-cleavage came out at 0.0236. For the variant G1A A22G, the self-cleavage amounted to 0.223. Same read-out and setting: under G1C U55G stands 0.132. Consider G1A A71U, for which the self-cleavage stood at 0.196.

With G1A A71C, the self-cleavage is 0.435.

Consider G1U A11C, for which the self-cleavage is 0.0545. With G1A G42A, the self-cleavage is 0.122.

Turning to G1A A11C, the self-cleavage came out at 0.139.

Turning to G1A A11G, the self-cleavage is 0.0942.

On to G1A C66U, for which the self-cleavage is 0.127. Consider G1A C66A, for which the self-cleavage was 0.164. Take G1C A30U: the self-cleavage was found to be 0.0862.

For the variant G1A U60C, the self-cleavage came out at 0.248. On to G1A U60G, for which the self-cleavage came to 0.194. Regarding G1A A31C, the self-cleavage was 0.132. Same read-out and setting: under G1A A31U stands 0.284. Turning to G1A U52C, the self-cleavage was found to be 0.181.

Take G1A C46U: the self-cleavage was 0.225.

As for G1C U7C, the self-cleavage was 0.488. With G1C U7A, the self-cleavage is 0.229. For the variant G1U A23C, the self-cleavage worked out at 0.0726. For the variant G1U A23G, the self-cleavage came out at 0.183. As to G1A A45U, the self-cleavage was 0.106. G1C G42A: the self-cleavage came to 0.148. On the same count and under the same terms, the result for G1C G42U reads 0.145; that for G1C A31C, 0.284.

In the case of G1A A24U, the self-cleavage amounted to 0.191.

Consider G1A A24G, for which the self-cleavage was found to be 0.159. On to G1A A24C, for which the self-cleavage was 0.18. Consider G1C A39U, for which the self-cleavage worked out at 0.187.

In the case of G1C G19C, the self-cleavage turned out to be 0.0663. Turning to G1C G19U, the self-cleavage amounted to 0.194. For the variant G1C G56U, the self-cleavage was found to be 0.293. As for G1C A44U, the self-cleavage was determined as 0.295. On to G1A U70G, for which the self-cleavage came to 0.0827.

For G1A A30U, the self-cleavage is 0.159. Consider G1C G40U, for which the self-cleavage was 0.202.

For G1C G40A, the self-cleavage was determined as 0.0839. G1C C48G: the self-cleavage turned out to be 0.086. With G1C C48U, the self-cleavage was determined as 0.189. Take G1A G51U: the self-cleavage amounted to 0.274. Same read-out and setting: the result for G1A U55G reads 0.0224; that for G1C U60A, 0.123; that for G1C U60G, 0.0347. For G1C U9C, the self-cleavage is 0.198. In the case of G1C G51A, the self-cleavage is 0.343. As for G1A C3U, the self-cleavage worked out at 0.136. Same read-out and setting: under G1A C3A stands 0.115; under G1A A43C, 0.144; under G1C A49U, 0.252. On to G1C A49C, for which the self-cleavage amounted to 0.159. Regarding G1C A49G, the self-cleavage was 0.315. Take G1A U58C: the self-cleavage was 0.216. For G1A U8A, the self-cleavage is 0.232. Turning to G1A U8C, the self-cleavage came out at 0.265. For G1C U62C, the self-cleavage came out at 0.0543.

The record behind these values is the RNAGym collection of RNA variant scans (doi:10.7554/elife.80360).
